This note sets out measurements from article doi:10.64898/2025.12.10.693482, “Mechanism of NanR transcriptional activation of sialic acid metabolism in Streptococcus pneumoniae” (bioRxiv, 2025).

By Kd is commonly meant the constant that tells how readily two partners part at equilibrium. Lower therefore signals a tighter complex. What is called stoichiometry N is a count of units in the complex or per binding partner.

In one data set the target is T1, SpNanR D160A (NanR) (Streptococcus pneumoniae, UniProt A0A4M6CQT5, D160A).
T1 construct: gene ybbH; recombinant SpNanR variant
The data set can be described thus: DSF thermal shift (comparable to wild type) and tetramer stabilization by sedimentation velocity. Format: binding.

A further data set concerns the target T2, SpNanR (NanR) (Streptococcus pneumoniae, UniProt A0A4M6CQT5).
T2 construct: gene ybbH; recombinant, full-length SpNanR
Kind of data set: ITC (n = […]), DSF, crystal structures (8TX9, 8V4V), sedimentation velocity. It counts as binding.

A further data set addresses SpNanR R67A (Streptococcus pneumoniae, UniProt A0A4M6CQT5 1-283, R67A). Kind of data set: MST; up to 5 uM protein; MST: 20 mM Tris-HCl pH 8.0, 300 mM NaCl, 0.05% Tween-20, 20 C, 20 nM FAM-DNA, overnight incubation; AUC: 50 nM FAM-DNA, 0.019-5 uM SpNanR, buffer not given in m. The conditions noted are these: protein: recombinant; chain copies: 2; label: 5'-6-FAM on sense strand; blunt 18 bp.

In another data set the target is SpNanR T18A (Streptococcus pneumoniae, UniProt A0A4M6CQT5 1-283, T18A). The data set is described as above. Conditions: protein: recombinant; chain copies: 2; label: 5'-6-FAM on sense strand; blunt 18 bp.
Another data set addresses SpNanR R56A (Streptococcus pneumoniae, UniProt A0A4M6CQT5 1-283, R56A). The data set is described as above. Conditions: protein: recombinant; chain copies: 2; label: 5'-6-FAM on sense strand; blunt 18 bp.
Data set [1] concerns the molecule itself. Kind of data set: AUC; sedimentation velocity, SpNanR 0.27–153.5 μM, with 2 mM N-acetylmannosamine-6-phosphate, 20 mM Tris-HCl pH 8.0, 300 mM NaCl, 20 °C; tetramer to dimers.
Data set [2] deals with the molecule itself. The data set can be described thus: AUC; sedimentation velocity, SpNanR 4.3–227.7 μM, no N-acetylmannosamine-6-phosphate, 20 mM Tris-HCl pH 8.0, 300 mM NaCl, 20 °C; weight-averaged s fitted to a dimer-tetramer self-association model (Sedphat); tetramer to dimers.
Data set [3] concerns the molecule itself. The data set can be described thus: SEC-SAXS; small-angle X-ray scattering with in-line size exclusion chromatography, SpNanR without N-acetylmannosamine-6-phosphate.
Data set [4] concerns the molecule itself. Kind of data set: AUC; sedimentation velocity of SpNanR variants and wild type at the same concentration, without N-acetylmannosamine-6-phosphate (Supplementary Figure 14C–E).

Changes are numbered by the printed parent chain. Names and notes keep the numbering of the source. Values joined by “and” are separate entries in the source; they are usually repeats but may differ in a detail not shown here. Equal values may be shown once. A value given as a limit tells only on which side of the number the result lay.

T1 sequence (A0A4M6CQT5 whole entry D160A): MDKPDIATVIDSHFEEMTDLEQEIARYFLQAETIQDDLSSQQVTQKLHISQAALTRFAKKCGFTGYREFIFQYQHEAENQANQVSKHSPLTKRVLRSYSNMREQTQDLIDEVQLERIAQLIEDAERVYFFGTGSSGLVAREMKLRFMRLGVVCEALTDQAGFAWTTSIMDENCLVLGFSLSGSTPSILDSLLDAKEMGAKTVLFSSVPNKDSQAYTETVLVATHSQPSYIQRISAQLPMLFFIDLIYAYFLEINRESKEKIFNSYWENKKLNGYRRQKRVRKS
T2 sequence (A0A4M6CQT5 entry or part of it): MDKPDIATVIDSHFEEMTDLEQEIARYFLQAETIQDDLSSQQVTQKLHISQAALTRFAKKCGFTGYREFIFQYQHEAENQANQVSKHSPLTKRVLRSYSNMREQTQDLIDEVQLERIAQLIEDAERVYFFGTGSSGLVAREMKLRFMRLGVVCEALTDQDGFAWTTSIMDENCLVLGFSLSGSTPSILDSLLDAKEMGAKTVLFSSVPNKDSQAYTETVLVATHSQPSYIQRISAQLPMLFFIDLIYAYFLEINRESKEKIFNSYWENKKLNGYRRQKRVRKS

As to `CC(=O)N[C@@H]1C(O)O[C@H](COP(=O)(O)O)[C@@H](O)[C@@H]1O` (stereo partly shown) [manNAc-6-P, N-acetylmannosamine-6-phosphate], the “DSF thermal shift (comparable to wild type) and tetramer stabilization by sedime” value at SpNanR D160A (NanR) is “it still binds N-acetylmannosamine-6-phosphate and that this sufficiently stabilizes the tetrameric form”. The molecule also had a dissociation constant Kd at SpNanR (NanR) of 20.4 ± 6 µM.

B1: nanE recognition sequence, FAM-labeled (dsDNA)
DNA 1: TCTGAAAGTACTTTTAGA
DNA 2: TCTAAAAGTACTTTCAGA
Turning to B1, the binding result in the data set with SpNanR R67A, in the data set with SpNanR T18A and in the data set with SpNanR R56A was “no binding” each time.

B2: Streptococcus pneumoniae NanR (SpNanR), wild type (natural protein, UniProt A0ACD7PT65 1-283, looked up)
chain: MDKPDIATIIDSHFEEMTDLEQEIARYFLQAETITDDLSSQQVTQKLHISQAALTRFAKKCGFTGYREFIFQYQHQAENQANQVSKHSPLTKRVLRSYSNMREQTQDLIDEIQLERIAQLIEDAERIYFFGTGSSGLVAREMKLRFMRLGVVCEALTDQDGFAWTTSIMDENCLVLGFSLSGSTPSILDSLLDAKEMGAKTVLFTSVPNKNSQTYTETVLVATHSQPSYIQRISAQLPMLFFIDLIYAYFLEINRESKEKIFNSYWENKKLNGYRRQKRVRKS
notes: NanR, RpiR family transcriptional regulator of Streptococcus pneumoniae; recombinant full-length protein; intact mass 32,611 Da; Cloned into pET30ΔSE; Exists in a dimer-tetramer equilibrium; also called SpNanR^WT
Take B2: the Kd in data set [1] was less than 0.2 µM; in data set [2] it was 97 µM. For the same molecule, in data set [3], the “stoichiometry N” value was 4 and 2.

B3: SpNanR^R148A (natural protein)
chain: B2 chain with R148A
notes: NanR of Streptococcus pneumoniae (WP_000360349.1) with the substitution R148A; Variant of m1; source: E. coli BL21(DE3), purified
For B3, the “stoichiometry N” value in [4] was 2.

B4: SpNanR^D160A (natural protein)
chain: B2 chain with D160A
notes: NanR of Streptococcus pneumoniae (WP_000360349.1) with the substitution D160A; Variant of m1; source: E. coli BL21(DE3), purified
For the molecule B4, the “stoichiometry N” value in [4] came to 2.
